Where “and” joins values, the source holds several entries; their conditions need not be identical. Equal values may be shown once. Each block holds one substance with its values, some of them ahead of it.
Columns and labels:
Experiment in all cases: SEC; size-exclusion chromatography of the tag-free proteins after cleavage of the MBP fusion proteins with factor Xa; self-association (oligomeric state); SEC data not shown
[1] = molecular target: Y138A full-length human phenylalanine hydroxylase (human) (UniProt P00439)
[2] = molecular target: Y138E full-length human phenylalanine hydroxylase (human) (UniProt P00439)
[3] = molecular target: Y138F full-length human phenylalanine hydroxylase (human) (UniProt P00439)
[4] = molecular target: Y138K full-length human phenylalanine hydroxylase (human) (UniProt P00439)
[5] = molecular target: double truncated form ΔN102/ΔC24-hPAH (catalytic domain of human phenylalanine hydroxylase) (human) (UniProt P00439)
[6] = molecular target: wild-type human phenylalanine hydroxylase, full-length (wt-hPAH) (human) (UniProt P00439)
[7] = molecular target: ΔN102/ΔC24-Y138A human phenylalanine hydroxylase catalytic domain (human) (UniProt P00439)
[8] = molecular target: ΔN102/ΔC24-Y138E human phenylalanine hydroxylase catalytic domain (human) (UniProt P00439)
[9] = molecular target: ΔN102/ΔC24-Y138F human phenylalanine hydroxylase catalytic domain (human) (UniProt P00439)
[10] = molecular target: ΔN102/ΔC24-Y138K human phenylalanine hydroxylase catalytic domain (human) (UniProt P00439)

Substance: double truncated form ΔN102/ΔC24-hPAH (catalytic domain of human phenylalanine hydroxylase) (from UniProt P00439 103-428) (domain or fragment)
stoichiometry N [5]: 2

Substance: wild-type human phenylalanine hydroxylase, full-length (wt-hPAH) (from UniProt P00439 1-452) (enzyme)
stoichiometry N [6]: 4 and 2

Substance: ΔN102/ΔC24-Y138A human phenylalanine hydroxylase catalytic domain (from UniProt P00439 103-428) (domain or fragment)
stoichiometry N [7]: 2

Substance: ΔN102/ΔC24-Y138E human phenylalanine hydroxylase catalytic domain (from UniProt P00439 103-428) (domain or fragment)
stoichiometry N [8]: 2

Substance: ΔN102/ΔC24-Y138F human phenylalanine hydroxylase catalytic domain (from UniProt P00439 103-428) (domain or fragment)
stoichiometry N [9]: 2

Next, values leading:

stoichiometry N [1]: 4 and 2
Substance: Y138A full-length human phenylalanine hydroxylase (from UniProt P00439 1-452) (enzyme)

stoichiometry N [2]: 4 and 2
Substance: Y138E full-length human phenylalanine hydroxylase (from UniProt P00439 1-452) (enzyme)

stoichiometry N [3]: 4 and 2
Substance: Y138F full-length human phenylalanine hydroxylase (from UniProt P00439 1-452) (enzyme)

stoichiometry N [4]: 2 and 4
Substance: Y138K full-length human phenylalanine hydroxylase (from UniProt P00439 1-452) (enzyme)

stoichiometry N [10]: 2
Substance: ΔN102/ΔC24-Y138K human phenylalanine hydroxylase catalytic domain (from UniProt P00439 103-428) (domain or fragment)

Reference: PMC5494296
